Experimental data taken from US10106582B2, “Complex-formation-modulating agents and uses therefor” (Factor Therapeutics Limited, priority 2012, dated 2018).

Legend:
[1] = target: T1, IGFBP-3 (Homo sapiens, UniProt P17936); experiment: VN-peptide array: binding of IGFBP-3 to immobilized overlapping 16-mer VN peptides; settings: spot stronger than negative controls = positive hit
T1 construct: purchased GroPep
From the text: (§1) The inventors designed small-molecule VN-peptides that could potentially disrupt the formation of the IGF-I:IGFBP:VN trimeric or the IGF-II:VN dimeric complexes by binding to the IGFBPs and/or IGF-II and preventing their association with VN within the complex. To design peptides, the binding sites of IGFBP-3/-5 and IGF-II on VN were first determined using VN-peptide arrays. The entire VN protein sequence, excluding the signal peptide (residues 1-19), was divided into overlapping 16-mer peptides with 3AA frameshift/offset (for peptide sequences refer to Table 6) and immobilized onto cellulose membranes (peptide spotting was outsourced to PepMetric Technologies Inc). For a schematic of the arrangement of VN peptides and controls refer to FIG. 2. The resultant peptide arrays were incubated either with IGFBP-3, IGFBP-5 or IGF-II ligands, probed with the respective antibodies, the membranes developed using ECL, and imaged using the ChemiDoc™ XRS system (BioRad). The spots on the membrane were analysed using TotalLab array quantification software (TotalLab Ltd, Newcastle, England) identifying positive peptide spots by comparing each spot to the combined intensities of the negative controls.
(§2) The entire VN protein sequence, excluding the signal peptide (residues 1-19), was divided into overlapping 16-mer peptides with 3 amino acid (AA) frameshift/offset. This yielded 148 overlapping peptides covering the entire VN sequence (residues 20-478) (Table 6) with a resolution of 3 AA. Peptide synthesis and spotting onto a cellulose membrane were outsourced to PepMetric Technologies Inc. (Richmond, BC, Canada). For a diagrammatic illustration of the strategy used to divide an example amino acid sequence into peptides and to spot them onto the membrane, please refer to http://www.pepmetric.com/html/Pep-Overlap.html. The VN-overlapping peptides were generated using FMOC (9-fluorenylmethoxycarbonyl) Solid-Phase SPOT synthesis onto PEG-grafted amine-functionalized cellulose membrane (Whatman® 540 filter paper). The peptides were spotted onto the cellulose membrane in a 10×16 grid with each peptide being 10˜50 nM in concentration with >70% purity. Finally, these membranes were acetylated in order to cap the free ends of the spotted peptides preventing them from degradation during shipping and storage.
(§3) Along with the VN-peptides these membranes were also spotted with a positive control (i.e., universal binding peptides tested by the manufacturer to be positive for antibodies from goat, mouse, rat and chicken) and a negative control (ie. non-binding peptides as well as BSA) controls. For a schematic of the arrangement of VN-peptides and controls refer to FIG. 2 and for the sequence of each peptide corresponding to the grid number refer to Table 6. Four such replicate membranes were prepared and stored at room temperature in a clip sealed plastic bag. Long-term storage was at −20° C.
(§4) Methanol or ethanol was used to enhance the rehydration of peptide spots that might be hydrophobic. The peptides spotted onto the membranes were activated by incubating in 3 mL of 70% ethanol for five mins. The membranes were subsequently washed three times, 10 minutes each, in 10 mL TBS (Tris Buffered Saline; 8 g NaCl, 0.2 g KCl and 6.1 g Tris Base into 1000 mL of milliQ water, pH 7) with gentle rocking. Membrane blocking was performed by incubating in 10 mL casein-based membrane blocking buffer (MBS; Sigma-Aldrich) overnight at 4° C. The following day, the membranes were washed twice, 10 minutes each, in 10 mL TBS-T (TBS+0.05% Tween-20; pH 7).
(§5) Ligands used to test binding to VN-peptides were IGFBP-3, IGFBP-5 and IGF-II. For ligand binding, four separate solutions of 1 μg/mL ligand in 10 mL MBS buffer were prepared and each membrane was incubated in one of the four ligand solutions overnight at 4° C., with gentle rocking. […] The following day, the membranes were washed three times, 10 minutes each, in 10 mL TBS-T. […]

[2] = target: T2, IGFBP-5 (Homo sapiens, UniProt P24593); experiment: VN-peptide array: binding of IGFBP-5 to immobilized overlapping 16-mer VN peptides; settings: spot stronger than negative controls = positive hit
T2 construct: purchased GroPep
T2 sequence (P24593 21-272): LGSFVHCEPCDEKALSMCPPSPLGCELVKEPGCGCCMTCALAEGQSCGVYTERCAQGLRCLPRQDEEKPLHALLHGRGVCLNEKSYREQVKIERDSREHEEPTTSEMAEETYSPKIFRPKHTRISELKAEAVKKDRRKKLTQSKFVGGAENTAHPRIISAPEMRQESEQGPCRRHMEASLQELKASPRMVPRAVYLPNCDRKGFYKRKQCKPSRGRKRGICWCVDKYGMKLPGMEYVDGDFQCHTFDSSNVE
From the text: as §1
The entire VN protein sequence, excluding the signal peptide (residues 1-19), was divided into overlapping 16-mer peptides with 3 amino acid (AA) frameshift/offset. […]

[3] = target: T3, IGF-II (Homo sapiens, UniProt P01344); experiment: VN-peptide array: binding of IGF-II to immobilized overlapping 16-mer VN peptides; settings: spot stronger than negative controls = positive hit
T3 construct: purchased GroPep
T3 sequence (P01344 25-91 limits assumed): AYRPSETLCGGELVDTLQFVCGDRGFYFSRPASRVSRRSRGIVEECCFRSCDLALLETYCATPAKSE
From the text: as §1, §2, §3, §4, §5

[4] = test system: MCF-7 cells; experiment: 3D Matrigel growth assay of MCF-7 tumor spheroids; format: cell-based, human
From the text: FIG. 7 is a photographic and graphical representation showing MCF-7 3D cell growth in response to peptide antagonists. MCF-7 cells suspended in media containing 1% serum and 2.5% Matrigel (Matrigel media) were layered onto a thin layer of 100% Matrigel. Spheroids were allowed to form in Matrigel media containing VN, TRI or TRI supplemented with peptides P7 and P8. Cells were allowed to grow for 14 days with media+proteins changed every 3 days. (A) Phase contrast and fluorescence microscopy was used to obtain images of the spheroids treated with 90 nM P7, P8 or P7+8. The fluorescent images were subjected to analysis using Image J to calculate spheroid sizes. The images post-ImageJ analyses are depicted in the bottom panel of A. All the images depicted are representative images obtained from triplicate experiments with treatments tested in duplicates in each replicate experiment. Scale bar denotes 100 μm. (B) Scatter plot depicts mean spheroid size (μm^2) at Day 14 for each treatment, calculated using Image-J (90 nM peptide treatments are depicted here). Each data point in the graph is the average size of all spheroids present in a single field of view at 40× magnification. ** denotes p<0.01 and * denotes p<0.05. (C) To measure cell viability/proliferation the 3D culture was treated on Day 14 with 5% Alamar Blue dye for 4 hours and fluorescence intensities were recorded. Error bars indicate SEM. ** denotes p<0.01 Vs TRI and * denotes p<0.05 Vs TRI. The experiment was repeated twice with treatments tested in duplicate wells in each replicate experiment. TRI=IGF-I:IGFBP-5:VN trimeric complex (equimolar at 10 nM concentrations).
To closely mimic in vivo conditions, cells were grown in a 3D matrix (Matrigel) closely resembling in vivo extracellular matrix physiology. MCF-7 cells suspended in growth media containing 1% serum and 2.5% Matrigel (Matrigel media) were layered onto a thin layer of 100% Matrigel. Tumor spheroids were allowed to form for 3 days after which spent media was replenished with Matrigel media containing VN only, trimeric complex, or trimeric complex supplemented with increasing concentrations of peptides (P7, P8 or P7+P8). Cells were allowed to grow for additional 11 days with media+proteins changed every 3 days. Spheroid morphology was assessed using phase-contrast microscopy and cell viability was measured using AlamarBlue, a fluorescent metabolic dye.

T1 sequence (P17936 28-291): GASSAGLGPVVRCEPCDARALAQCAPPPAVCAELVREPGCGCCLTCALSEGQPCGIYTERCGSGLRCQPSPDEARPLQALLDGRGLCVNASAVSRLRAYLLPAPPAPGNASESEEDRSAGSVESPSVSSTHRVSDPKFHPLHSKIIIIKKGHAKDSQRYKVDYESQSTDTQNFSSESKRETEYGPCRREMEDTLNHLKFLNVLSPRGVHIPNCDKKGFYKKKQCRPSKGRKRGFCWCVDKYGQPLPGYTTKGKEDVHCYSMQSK

Sequence	Binding of IGFBP-3 on VN-peptide array (positive spot or not) [1]	Binding of IGFBP-5 on VN-peptide array (positive spot or not) [2]	Binding of IGF-II on VN-peptide array (positive spot or not) [3]	TRI-stimulated cell viability (AlamarBlue) ([4]; 90 nM peptide, Day 14, 3D Matrigel culture)	Size of TRI-treated tumor spheroids (phase-contrast microscopy) ([4]; increasing concentrations of peptides, Matrigel 3D culture, 14 days)
KTYLFKGSQYWRFEDG [Neg, reference compound]	did not show any binding	did not show any binding	did not show any binding		
LFSSEESNLGANNYDDYRMDWL (listed as Homo sapiens) [Peptide P7, human VN motif 7 mimic]	does not bind	does not bind	binds	significantly inhibit	decrease with increasing concentrations
